Consider 1 sequence from patent US20160243251.

Holding throughout (test): FP
In data set [1] the test system is KRRRC(-TMR)-NH2 (LKLRLRLRLC(-TMR)-NH2) (synthetic). To be noted: 2 mM NaCl, pH 7.4; p253 text gives 46 ± 9.
Data set [2] concerns T1, TMR-(CH2)5-DKDRDRDR-NH2 (synthetic).
T1 sequence: KRRR
To be noted: 2 mM NaCl, pH 7.4.

The test system of data set [3] is T2, TMR-(CH2)5-KRRR-NH2 (L) (synthetic).
T2 sequence: KRRR
To be noted: 2 mM NaCl, pH 7.4.

The subject of data set [4] is T3, TMR-DKDRDRDR-NH2 (synthetic).
T3 sequence: KRRR
The note with it: 2 mM NaCl, pH 7.4.

The test system of data set [5] is TMR-DRDRDRDK-NH2 (synthetic). To be noted: 2 mM NaCl, pH 7.4.
Data set [6] deals with TMR-KKKK-NH2 (TMR-LKLKLKLK-NH2) (synthetic). The note with it: 2 mM NaCl, pH 7.4.
Data set [7] concerns T4, TMR-KRRR (TMR-LKLRLRLR, C-terminal carboxylate) (synthetic).
T4 sequence: KRRR
To be noted: CITED Xiong et al; pH 7.4; DNA assumed same 30-mer; cited from earlier work.

The subject of data set [8] is T5, TMR-KRRR-NH2 (TMR-LKLRLRLR-NH2) (synthetic).
T5 sequence: KRRR
To be noted: 2 mM NaCl, pH 7.4.

The test system of data set [9] is T6, TMR-LKDRLRDR-NH2 (synthetic).
T6 sequence: KRRR
To be noted: 2 mM NaCl, pH 7.4.

The test system of data set [10] is TMR-LRL-LRL-LRL-LRL-NH2 (tetra L-homo-arginine) (synthetic). The note with it: 2 mM NaCl, pH 7.4.
The test system of data set [11] is TMR-LRS-LRS-LRS-LRS-NH2 (tetra L-2-amino-3-guanidinopropionic acid) (synthetic). To be noted: 2 mM NaCl, pH 7.4.
The test system of data set [12] is TMR-RRRK-NH2 (TMR-LRLRLRLK-NH2) (synthetic). The note with it: 2 mM NaCl, pH 7.4.
The subject of data set [13] is TMR-RRRR (TMR-LRLRLRLR, C-terminal carboxylate) (synthetic). The note with it: CITED Xiong et al; pH 7.4; DNA assumed same 30-mer; cited from earlier work.
For data set [14], the system named is TMR-RRRR-NH2 (TMR-LRLRLRLR-NH2) (synthetic). The note with it: 2 mM NaCl, pH 7.4.
The test system of data set [15] is TMR-β3Kβ3Rβ3Rβ3R-NH2 (synthetic). To be noted: 2 mM NaCl, pH 7.4.
The subject of data set [16] is TMR-β3Rβ3Rβ3Rβ3K-NH2 (synthetic). The note with it: 2 mM NaCl, pH 7.4.

As usually defined, the Kd is a measure of binding affinity in units of concentration. As to “GACGACTAGGACGACGACGAGGATGACGAC (double strand) [30-mer dsDNA]”, the equilibrium dissociation constant (Kd) in data set [1] worked out at 54 nM; in data set [2] it was 47 nM; in data set [3] it was 46 nM; in [4] it was 44 nM; in data set [5], 37 nM; in data set [6], 53 nM. For the same sequence, the Kd in [7] is 197 nM; in [8], 46 nM; in data set [9] it was 36 nM; in [10] it was 13 nM; in data set [11] it was 129 nM; in data set [12] it was 28 nM. Moreover, the Kd in data set [13] is 236 nM; in [14] it was 31 nM; in [15] it was 41 nM; in data set [16], 49 nM.
